PMC5295013

Tested on: Gp90 D234A (DNA polymerase, exonuclease-deficient) (Pseudomonas aeruginosa phage PaP1)
Assay: SPR
Settings: SPR (Biacore 3000, SA chip, steady-state fit): 40 mM Tris-HCl pH 7.5, 10 mM DTT, 50 mM potassium glutamate, room temperature, 20-600 nM protein, ternary assays …

Row | Sequence | Kd (30 mM Mg2+, 1 mM dATP (ternary complex, mispair), 8-oxoG at template position 35 from 5' end (28th from 3' end, first templating base), primer 3'-terminal ddC) [µM] | Kd (30 mM Mg2+, 1 mM dCTP (ternary complex), 8-oxoG at template position 35 from 5' end (28th from 3' end, first templating base), primer 3'-terminal ddC) [µM] | Kd (no Mg2+, no dNTP (binary complex), 8-oxoG at template position 35 from 5' end (28th from 3' end, first templating base), primer 3'-terminal ddC) [µM] | Kd (30 mM Mg2+, 1 mM dCTP (ternary complex), primer 3'-terminal dideoxycytidine (ddC, chain terminator)) [µM] | Kd (no Mg2+, no dNTP (binary complex), primer 3'-terminal dideoxycytidine (ddC, chain terminator)) [µM]
1 | TTTGCTACAGAGTTATGGTGACGATACGTC / TGAATTCTAATGTAGTATAGTAATCCGCTCTATCGGACGTATCGTCACCATAACTCTGTAGC [30-mer(dd)/62-mer 8-oxoG primer-template] | 0.045 | 0.034 | 0.116 |  | 
2 | TTTGCTACAGAGTTATGGTGACGATACGTC / TGAATTCTAATGTAGTATAGTAATCCGCTCTATCGGACGTATCGTCACCATAACTCTGTAGC [30-mer(dd)/62-mer G primer-template] |  |  |  | 0.011 | 0.108
